Data from the supplement of paper PMC9233669.
Variants at the floor of the assay were thinned out.

Experiments:
[1] = system: biotinyl-Met-oxazolone; assay: self-aminoacylation, catalytic enhancement (BMO) (fold over background); higher = more active; k-Seq, kA / k0A0; sequences stand for … in GGGAAUGGAUCCACAUCUACGAAUUC…UUCACUGCAGACUUGACGAAGCUG
Summary of the method: (§1)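 Mutagenized RNA pools (0.43 μM; 21-nt variable region) were treated with 2–1250 μM of each biotinyl-aminoacyl-oxazolone. Conditions were 50 μL HEPES/NaCl/KCl/MgCl2/CaCl2 buffer, 5% acetonitrile, pH 6.9–7.0, room temperature, 90 minutes. Catalytic enhancement, the median kA relative to the uncatalyzed rate, was derived from streptavidin capture, qPCR and Illumina sequencing.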

[2] = system: biotinyl-Trp-oxazolone; assay: self-aminoacylation, catalytic enhancement (BWO) (fold over background); higher = more active; k-Seq, kA / k0A0; sequences stand for … in GGGAAUGGAUCCACAUCUACGAAUUC…UUCACUGCAGACUUGACGAAGCUG
Summary of the method: as §1

[3] = system: biotinyl-Phe-oxazolone; assay: self-aminoacylation, catalytic enhancement (BFO) (fold over background); higher = more active; k-Seq, kA / k0A0; sequences stand for … in GGGAAUGGAUCCACAUCUACGAAUUC…UUCACUGCAGACUUGACGAAGCUG
Summary of the method: as §1

[4] = system: biotinyl-Val-oxazolone; assay: self-aminoacylation, catalytic enhancement (BVO) (fold over background); higher = more active; k-Seq, kA / k0A0; sequences stand for … in GGGAAUGGAUCCACAUCUACGAAUUC…UUCACUGCAGACUUGACGAAGCUG
Summary of the method: as §1

[5] = system: biotinyl-Ile-oxazolone; assay: self-aminoacylation, catalytic enhancement (BIO) (fold over background); higher = more active; k-Seq, kA / k0A0; sequences stand for … in GGGAAUGGAUCCACAUCUACGAAUUC…UUCACUGCAGACUUGACGAAGCUG
Summary of the method: as §1

[6] = system: biotinyl-Leu-oxazolone; assay: self-aminoacylation, catalytic enhancement (BLO) (fold over background); higher = more active; k-Seq, kA / k0A0; sequences stand for … in GGGAAUGGAUCCACAUCUACGAAUUC…UUCACUGCAGACUUGACGAAGCUG
Summary of the method: as §1

| Sequence | self-aminoacylation [1] | self-aminoacylation [2] | self-aminoacylation [3] | self-aminoacylation [4] | self-aminoacylation [5] | self-aminoacylation [6] |
| --- | --- | --- | --- | --- | --- | --- |
| AACUUUGCUAAAAGUCGCAAG [Fam3.1 aminoacylation ribozyme variant] | 2.47 | 4.13 | 6.96 | 2.54 | 3.11 | 2.98 |
| AGUCACCUAGGUGAUCGGGUG [Fam2.2 aminoacylation ribozyme variant] | 4.24 | 6.05 | 24.3 | 4.38 | 4.34 | 5.45 |
| AAUACUCUGGUCAUCGAGUGA [Fam2.1 aminoacylation ribozyme variant] | 3.85 | 5.7 | 8.91 | 2.77 | 2.59 | 3.72 |
| GCAGACUUCAAGCAAUCGGUC [Fam1B.1 aminoacylation ribozyme variant] | 2.82 | 49.8 | 119 | 2.67 | 3.19 | 4.28 |
| AAGUUUGCUUAUAGUCGCAUG [Fam3.1 aminoacylation ribozyme variant] | 0.857 | 0.976 | 1.33 | 0.999 | 0.918 | 0.926 |
| AUUACCCCGGUGAUCGAGUGA [Fam2.1 aminoacylation ribozyme variant] | 3.73 | 4.35 | 21.5 | 2.23 | 2.23 | 3.33 |
| AUUGAGCUAGGUCAUCGGGUG [Fam2.2 aminoacylation ribozyme variant] | 3.78 | 5.57 | 26.6 | 3.55 | 3.41 | 5.61 |
| AUUCUCCUAGGUCAGCGGGUG [Fam2.2 aminoacylation ribozyme variant] | 6.21 | 8.04 | 43.1 | 3.99 | 4.22 | 8.81 |
| AUUACCCUGGUUAUGGAGUGA [Fam2.1 aminoacylation ribozyme variant] | 7.77 | 8.01 | 47.4 | 3.93 | 3.95 | 7.9 |
| AUUUGCCUAGGUCAUCGGGUG [Fam2.2 aminoacylation ribozyme variant] | 28 | 24.6 | 195 | 14.1 | 16 | 38.3 |
| AAUACCCUGGUCAUCGAGUGA [Fam2.1 aminoacylation ribozyme variant] | 9.27 | 11.2 | 20.8 | 5.52 | 5.01 | 8.74 |
| CCUCACCUAGGUCAUCGGGUG [Fam2.2 aminoacylation ribozyme variant] | 3.92 | 5.46 | 16.2 | 5.35 | 3.22 | 4.79 |
| CCACACUUGAAGCAAUCGGUG [Fam1B.1 aminoacylation ribozyme variant] | 3.04 | 3.48 | 19.1 | 2.39 | 2.21 | 4.29 |
| AUUCACCUACGUUAUCGGGUG [Fam2.2 aminoacylation ribozyme variant] | 7.55 | 6.51 | 63.3 | 4.17 | 3.98 | 9.22 |
| UUUACCCUGGCCAUCGAGUGA [Fam2.1 aminoacylation ribozyme variant] | 3.22 | 5.04 | 16.7 | 2.52 | 2.06 | 3.97 |
| AUUACCCUGGACCUCGAGUGA [Fam2.1 aminoacylation ribozyme variant] | 3.68 | 3.16 | 5.71 | 2.4 | 1.88 | 3.9 |
| AUUCACCUAGGACAUCGGGUU [Fam2.2 aminoacylation ribozyme variant] | 1.39 | 1.25 | 3.67 | 1.77 | 1.47 | 1.38 |
| AAGUUUGCUAAUGGUCGCUAG [Fam3.1 aminoacylation ribozyme variant] | 0.963 | 0.845 | 0.714 | 0.975 | 0.829 | 0.908 |
| CUAGACUUCAAGCAAUCGGUC [Fam1B.1 aminoacylation ribozyme variant] | 1.05 | 16.2 | 34.1 | 0.979 | 0.981 | 1.37 |
| UUACUUCAAACUAUCGGUCUG [Fam1A.1 aminoacylation ribozyme variant] | 0.916 | 1.26 | 1.25 | 1.08 | 1.25 | 1.04 |
| CCACACUUCAAACAAUCGGAC [Fam1B.1 aminoacylation ribozyme variant] | 0.88 | 1.94 | 3.27 | 1 | 1.01 | 0.951 |
| CUACUUCACACAAUAGGUCUG [Fam1A.1 aminoacylation ribozyme variant] | 0.474 | 0.394 | 1.01 | 0.605 | 0.6 | 0.469 |

| Sequence | self-aminoacylation [1] | self-aminoacylation [2] | self-aminoacylation [3] | self-aminoacylation [4] | self-aminoacylation [5] | self-aminoacylation [6] |
| --- | --- | --- | --- | --- | --- | --- |
| AUUAUCCUGGUCUUCGAGUGA [Fam2.1 aminoacylation ribozyme variant] | 5.8 | 7.67 | 37.6 | 2.93 | 3.26 | 5.95 |
| CUGCUUCAAACAAUCGGUCGG [Fam1A.1 aminoacylation ribozyme variant] | 2.05 | 59.6 | 183 | 1.71 | 1.48 | 3.72 |
| CUACUUCAAACAACUGGUCUG [Fam1A.1 aminoacylation ribozyme variant] | 0.603 | 0.661 | 0.753 | 0.654 | 0.734 | 0.678 |
| AUUCACCUAGGUCAUUGCGUG [Fam2.2 aminoacylation ribozyme variant] | 15.7 | 15.8 | 123 | 7.69 | 8.82 | 21.7 |
| AUUACCCUGGUCUUUGAGUGA [Fam2.1 aminoacylation ribozyme variant] | 7.29 | 9.67 | 41.8 | 4.17 | 4.05 | 8.33 |
| AAUACCCUGGUCAUCGAGUGU [Fam2.1 aminoacylation ribozyme variant] | 8.79 | 8.44 | 20.5 | 4.56 | 3.84 | 7.95 |
| AUUCACCUAGGUGAUCGCGUG [Fam2.2 aminoacylation ribozyme variant] | 2.86 | 2.83 | 14.6 | 2.31 | 2.69 | 4.17 |
| CUACUUCAAACAAUCGGUACG [Fam1A.1 aminoacylation ribozyme variant] | 0.396 | 0.839 | 2.05 | 0.577 | 0.461 | 0.425 |
| AUUAUCCUGGUUAUCGAGUGA [Fam2.1 aminoacylation ribozyme variant] | 12.2 | 14.7 | 71.3 | 4.88 | 5.55 | 13.5 |
| AUUCACCUAGGUGAUCGGGCG [Fam2.2 aminoacylation ribozyme variant] | 3.9 | 3.84 | 12.5 | 3.62 | 3.28 | 4.11 |
| GAGUUUGCUAAUAGUCGCAAC [Fam3.1 aminoacylation ribozyme variant] | 1.31 | 1.2 | 1.19 | 1.19 | 1.4 | 0.998 |
| AUUCAACUAGGUCAUCAGGUG [Fam2.2 aminoacylation ribozyme variant] | 1.29 | 1.33 | 1.43 | 1.22 | 1.28 | 1.54 |
| AUUAGCCUGGUCAUUGAGUGA [Fam2.1 aminoacylation ribozyme variant] | 9.25 | 12.3 | 62.6 | 5.01 | 4.89 | 10.3 |
| CUCCUUUAAACAAUCGGUCUG [Fam1A.1 aminoacylation ribozyme variant] | 1.12 | 1.36 | 1.73 | 0.974 | 0.972 | 0.712 |
| AUUCACCUAGGACAUCGGCUG [Fam2.2 aminoacylation ribozyme variant] | 2.02 | 2.64 | 10.9 | 1.79 | 1.7 | 2.32 |
| CUACUUCAAACUAUCAGUCUG [Fam1A.1 aminoacylation ribozyme variant] | 0.975 | 0.813 | 1.25 | 1.05 | 1.06 | 0.801 |
| AUUCACCCAGGUCAUCAGGUG [Fam2.2 aminoacylation ribozyme variant] | 1 | 0.804 | 0.632 | 1.01 | 0.991 | 1.08 |
| AUUACCCUGAUCAUCAAGUGA [Fam2.1 aminoacylation ribozyme variant] | 2.3 | 3.1 | 3.86 | 1.77 | 1.57 | 2.77 |
| CUACUUCAAACUAUCCGUCUG [Fam1A.1 aminoacylation ribozyme variant] | 0.889 | 0.852 | 0.844 | 1.08 | 0.955 | 0.936 |
| AAGAUUGCUAAUACUCGCAAG [Fam3.1 aminoacylation ribozyme variant] | 1.41 | 1.91 | 1.48 | 1.37 | 1.72 | 1.24 |
| AUUACCCUGGUCAUCCUGUGA [Fam2.1 aminoacylation ribozyme variant] | 1.39 | 1.52 | 2.81 | 1.07 | 1.51 | 1.71 |
